This passage reports Tumor/Liver ratio results from PMC3310279 (Bioconjugate Chemistry, 2012).

The test system of this series is MDA-MB-435 human breast tumor xenografts. Kind of series: Biodistribution in mice bearing MDA-MB-435 xenografts. The series is classed as in vivo. The note with it: MDA-MB-435 tumor-bearing athymic nude mice, 60 min p.i., mean ± SD n = 4.

Regarding “[^99mTc(HYNIC-K(NIC)-3G-RGD2)(tricine)] [Complex 2]”, the Tumor/Liver ratio stood at 4.1 ± 0.97.
